Assay results taken from PMC10952621.
pKd: −log10 of the molar value.

Legend:
[1] = target: LQTS-associated calmodulin variant D131H (human); assay: ITC; Kv7.1-HB peptide titrated into CaM (~50 uM) in the cell; 50 mM Na-HEPES, 100 mM KCl, 2 mM MgCl2, pH 7.5, 5 mM CaCl2; 25 °C; two-site binding model
[2] = target: LQTS-associated calmodulin variant N97I (human); assay: as above
[3] = target: LQTS-associated calmodulin variant D95V (human); assay: as above
[4] = target: LQTS-associated calmodulin variant D131H (human); assay: ITC; peptide titrated into CaM (~50 uM) in the cell; 50 mM Na-HEPES, 100 mM KCl, 2 mM MgCl2, pH 7.5, 1 mM EGTA (Ca2+-free); 25 °C; one-site binding model
[5] = target: LQTS-associated calmodulin variant N97I (human); assay: as above
[6] = target: LQTS-associated calmodulin variant D95V (human); assay: as above

## Kv7.1-HB(507-536) peptide, helix B of the KCNQ1 C-terminus
[1]
  KD, first binding event: 9.7 nM
  KD, second binding event: 908 nM
  N, first binding event: 0.8 sites
  N, second binding event: 1.4 sites
  dH, first binding event: -14.3 kcal/mol
  dH, second binding event: -15.5 kcal/mol
[2]
  KD, first binding event: 4.7 nM
  KD, second binding event: 775 nM
  N, first binding event: 1.1 sites
  N, second binding event: 1.1 sites
  dH, first binding event: -12.9 kcal/mol
  dH, second binding event: -11.5 kcal/mol
[3]
  KD, first binding event: 6.9 nM
  KD, second binding event: 725 nM
  N, first binding event: 0.8 sites
  N, second binding event: 0.8 sites
  dH, first binding event: -13.2 kcal/mol
  dH, second binding event: -14.9 kcal/mol
[4]
  dH: 3.3 kcal/mol
  stoichiometry N: 0.9 sites
[5]
  pKd: 5.62
  dH: 4.7 kcal/mol
  stoichiometry N: 0.8 sites
[6]
  pKd: 5.41
  dH: 5.8 kcal/mol
  stoichiometry N: 0.9 sites
